This data set in a line: yeast display, Sf9 membrane polyspecificity reagent, FACS + sequencing; frameworks hold sequencing errors. An outline of the steps:
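After 36–48 hours of galactose induction, yeast (Saccharomyces cerevisiae BJ5465) displaying a synthetic nanobody library were stained at 4 °C for 1 hour with 10% biotinylated, detergent-solubilized Sf9 membrane reagent. Streptavidin microbeads enriched the stained cells before FACS sorting into low and high (top ~1%) gates on anti-HA and streptavidin fluorescence. Each clone's polyreactivity label reflects its gate of origin.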
Regarding “QVQLVESGGCLVQAGGSLRLSCAASGFTFRWYTMGWYRQAPGKERELVAAITGSGCTTYYADSVKGRFTISRDNAKNTVYLQMNSVKPEDTAVYYCAAQYFPSRGWSKGYDYWGHGTQVTVSS”, the “polyreactivity (PSR sort gate)” value is given as “high polyreactivity”. As for “QVHLVESGGGLVQAGGSLRLSCAASGRTFDRYDMGWYRQAPGKEWELVATISSSGGSTYYADSVKGRFTISRDNEKNTVYLQMNSLKPEDTAVYYCAADPSGDYWGQGTQVTVSS”, the “polyreactivity (PSR sort gate)” value was “low polyreactivity”. With “QVQLVESGGGLVQAGGSLRLSCAASGSIFTEDAMGWYRQAPGKERELVAAISWSGATTYYADSVKGRFTISRDKAKNPVDLQMNSLKPEDTAVYYCAARWANRSYEYWGQGTQVTVSS” the entry was “low polyreactivity”; with “QVHLVESGGGLVQAGGSLRLSCAASGSTFRRNAMGWYRQAPGKERELVASITSGGSTYYADSVKGRFTITRDNAKNTVYLQMNSLKPEDTGVYYCAVVWRGGYRWPYEYWGQGTQVTVSS”, “low polyreactivity”; with “QVQLVESGGGLVQAGGSLRLSCAASGRIFSSYAMGWYRQAPGKERELVAAISSSGGNTYYADSVKGRFTISRDNAKNTVYLQMNSLKPEDTAVYYCNTRWVHRDWYDYWGLGTQVTVSS”, “high polyreactivity”. The entry for “QVQRVESGGGLVQAGGSLRLTCAASGFTFVYYPMGWYRQAPGKVREWVAVISYSGTNTRYADSVKRRFTISRDNAKITVYLQMNSLKPEDTAVYYCAAEIYYVSWYDYWGQGTQVTVSS” is “high polyreactivity”; for “QVQLVESGGGLVQAGGSLRLSCAASGFTFNFNAMGCYIQAPGKERELLAAIRYRGGSTNYADSVKGSFTISRDNAKNTVYVMMNSLKPEDTAVYYCNVYYYRTYSHVLPGYEYWGQGTQVPVSS” it is “high polyreactivity”; for “QVQLVESGGGLVQAGGSLRLSCAASGRTFVGYAMGWYRQPPGKERELVAAISGSGVRTYYADSVKGRFTISRDNAKNTGYLQMNSLKPEDTAVYYCADRRYRRWYDYWGQGTQVTVSS” it is “high polyreactivity”.

In the case of “QVQLVESGGGLVQAGGSLRLSCAASGLTFRYYAMGWYRQAPGKERELVATITGSGGSTYYADSVKGRFTISRDNAKNTVYFQMNSLNPEYTAVYYCAATVRVYDYWGQGTQVNVSS”, the “polyreactivity (PSR sort gate)” value is given as “high polyreactivity”. Turning to “QVQLVESGGGLVQAGGSLRLRGAASGRTFPGYAMGWCRPAPGNERELVATICSADSTNYADSVMGRFTSSRDNAKNTVKLHMKSLKPEDTAVYFCAQRYGRNGAAAQYNVWYRYDYWGQGTQVTVSS”, the “polyreactivity (PSR sort gate)” value is “low polyreactivity”. Turning to “QVQLVESGGGLVQAGGSLRLSCAASGSTFTRYAMGWYRQAPGKERELVAAISSSAGRTYYADSVKGRFTISRDNAKNTVYLQMNSLKPEDTAVYYCAATRVYAGAQYDYWGQGTQVTVSS”, the “polyreactivity (PSR sort gate)” value is “high polyreactivity”.

Take “QVQLVESGGGLVQAGGSLRLICAASGFTFTQYVMGWYSQAPGKERELVAAINWSGGNTYYAESVKGRFTISRDNAKNTVYLQMNSLKPEDTAVYYCAAYRHRNGYDYWGQGTQVTVSS”: the “polyreactivity (PSR sort gate)” value is recorded as “high polyreactivity”.

For the sequence “QVQLVESGGGLVQAGGSLRLSSAASGITFYLYAMGWYRQAPGKERELVAGISSGGSTNYADSVKGRFTISRDNAKNTVYLQMNSLKPEDTAVYYCAAKLRGYRYGYWGHGTQVTVSS”, the “polyreactivity (PSR sort gate)” value is on record as “high polyreactivity”. With “EVQLVESVGGLVHAGGSLGLSFAASGSIFDRNAMGWYRQAPGKERELVAAISVSGGSTYYADSVKGRFTISRDNAKNTVYLQMNSLKPEDTAVYYCDKAGRYANLPYGYWGHGTQVTVSS” the entry was “high polyreactivity”; with “HVLLVESAGGLVQAGGSLRLSCAASGLIFHRYAMGWYRQAPGKERELVAAISSSGGITYYADSVKGRFTISRDNAKNTVYLQMNSLKPEDTAFYYCAADTGKGTPFSAGLGRAGDYWGQVTQVTVSS”, “low polyreactivity”. With “QVQLVESGGGLVQAGGSLRLSCAASGSTFRYYAMGWYRQAPGKERELVAAISSAGTTYYADSVKGRFTISRDNAKNTVYLQMNSLKPEDTAVYYCTARFVYHSSFAGFDYWGQGTQVTVSS” the entry was “low polyreactivity”; with “QVQLVESAGGLVQAGGSLRISCAASGIIFARYSMGWYRPAPGKERELVAAINSSGGDTYYADSVKGRFTISRDTANNTVYLQMISLKPEDPAVYYCAKVISYLVVLPRTERYEGDYWGQGTQVTVSS”, “low polyreactivity”.

For the sequence “QVQLVQTGGGLVQAGGSLRLSCAASGRIFLSYTRGWYSQAPGKERELVATIDSRVSTNYADSVKGRFTISRDNAKNTVYLQMNSLKPEDTAVYYCNADGFYSSHGYDYCGQGTQVTVSS”, the “polyreactivity (PSR sort gate)” value is given as “low polyreactivity”. With “QEQLVESGGGLVQAGGSLRLSCAATGLTITDYAMGWYRQAPGKERELDAGINTRGTSRYSADSVKGRFTISRDNAKNTVYFQMFSLNPEDTAVYYCDSEYFGYWYGIQYDYWGQGTQVTVSS” the entry was “high polyreactivity”. As to “QVQLVESGGGLVQAGGSLRLSCAASGSTLYYYAMGWYRQAPGKERELVAAISSGGRTYYADSVKGRFTISRDNAKNTVYLQMNSLKPEDTAVYYCNAVRYQKIFDYWGQGTQVTVSS”, the “polyreactivity (PSR sort gate)” value is reported as “high polyreactivity”. With “QDQLEESGGGLVQAGGSLRLSCAASGSTFSYYTMGWYRQGPGKETELVAAISSGGSTYADSVKGRFTISRDNAKYTVYLQKNSLKPEDTAVYYCAVVGFDYGPSQALDDWGQGTQVTVSS”, the “polyreactivity (PSR sort gate)” value is “low polyreactivity”. In the case of “QVQLVESGGGLVQAGGSLRLSCAASGSTFKKNAMGWYRQAPGKERELVAAISGIGTRTSYADSVKGRFTISRDNAKNTVYLQMNSLKPEDTAVYYCAARYYGFPSTLKYDYWGQGTQVTVSS”, the “polyreactivity (PSR sort gate)” value is on record as “high polyreactivity”. Turning to “QVQLVESGGGLVQAGGSLRLSCAASGSTISRYAMGWYRHAPGKERELVAAISWNGGDTYYADSVKGRFTISRDYAKNTVFLQMNSLKPEDTAVYYCNTPRRITRAGYWAGSRYNYWGQGTQVTVSS”, the “polyreactivity (PSR sort gate)” value was “high polyreactivity”.

With “QVQLVESGGGLVQAGGSLRLSCDASGRIFYINALGWYRQAPGKERELVASITGSGDSTYYADSVKGRFTISRDNAKNTVYLQMNILKPEDTAVYYCAARTYYYYGPRYYYWGQGTQVTVSS”, the “polyreactivity (PSR sort gate)” value is recorded as “low polyreactivity”.

Take “QVHLVESGGGLVQAGGSLRLSCAASGRIFRYYAIGWYRQAPGKERELVAAITWRGDSTYYADSVKGRFTISRDNAKNTVYLQMNSLKPEDTAVYYCNKRWTDKYDSWGQGTQVTVSS”: the “polyreactivity (PSR sort gate)” value is listed as “high polyreactivity”.

Regarding “QVQLVESGGGLVQAGGSLRLISAASGRTFWTNAMGWYRQAPGKEREFVAAISWRGASTFYADSVKGRFTISRDNAKNTVYLQMNSLKPEDTAVYYCAAQSRTRSFYGKYDSWGQGTQVTVSS”, the “polyreactivity (PSR sort gate)” value was “low polyreactivity”. The entry for “QVQLVESGGGLVQAGGSLRLSCAASGFIFAYYAMGWYRQAAGKERELVAAITSDGSTYYADSVKGRFTISRDNAKNTVYLQMNSLKPEDTAVYYCNTYWVLRPGYNYWGQGTQVTVSS” is “high polyreactivity”. In the case of “QVQLVESGGGLVQAAGSLRVSCAASGSIFYSNVMGWYRTEPGKERELVARISDAGSTNYADSVKGRFTISRDNAKNTVYLQMNSLKPEDTAVYYCNARLVIYTYDYWGQGTQVTVSS”, the “polyreactivity (PSR sort gate)” value is recorded as “low polyreactivity”.

As to “QVQLVESGGGLVQAGGSLRLSCAASGRIFKQYALGWYRQAPGKERELVAAISVRGGITYYADSVKGRFTISRDNAKNTVYLQMNSLKPEDTAVYYCAKRSYRTHTYDYWGQGTQVTVSS”, the “polyreactivity (PSR sort gate)” value is “low polyreactivity”. The entry for “QVQLVESGGGLVQAGGSLRLSCAASRFTIIPYDMGRYRQAPGKERELVATISRGGSTNYADSVKGRFTISRENAKNTVYLQMNSLKPEDTAVYYCAAEYKVVFSQPYCEYDYWGQGTQVTVSS” is “low polyreactivity”; for “QVQLVESGGGLVQAGGSLRLSCAASGRIFGAYAMGWYRQAPGKERELVAAITSAGSTHYADSVKGRFTISRDNAKNTVYLQMNCLKPQDTAVYYCAADRYPWPLQYVEYDSDYWGQGTQVTVSS” it is “low polyreactivity”; for “QVQLVESGGGLVQAGVSLRLSCAASGFIFWFYAMGWYRQAPGKERELVAAINWSGSYTYYADSVKARFTISRDNAKNTVYLQMNSLKPEDTAVYYCNALFSYGYWRVRYNYWGQGTQVTVSS” it is “high polyreactivity”. On to “QVQLVESGGGLVQAGGSLRLSCAASGRTFTGYAMGWYRQAPGKERELVAAITSNGARTYYADSVKGRFTISRDNAKNTVYLQMNSLKPEDTAVYYCNRVRVYTHTAWGDDYWGQGTQVTVSS”, for which the “polyreactivity (PSR sort gate)” value is “low polyreactivity”. The entry for “QVHLVESGGGLVQAGGSLRLSCAASGSIFSYYAMGWYRQAPGKERELVASITYSGGSTYYADSVKGRFTISRDNAKNTVYLQMNSLKPEDTAVYYCNTDWRTSVGYDYWGQGTQVTVSS” is “low polyreactivity”; for “QVQLHESAGGLVQAGGSLRLRCSASGYISCDASRGWYRQAPGKERELAASITKGSSTNYADSVKGRFTIRDNAKNTVYLQMNRLKPEDTAVCYCAVTYPYWGDYTYWGQGTQVTVSS” it is “low polyreactivity”; for “QVQLVESGGGLVQAGGSLRLICAASGSTFIKYTMGWYRPAPGKERELVAAISRIGGSTYYADSVKGRFTISRDNAKNTVYLQMNSLKPEDTAVYYCAAPYPIGHDWGQGTQVTVSS” it is “low polyreactivity”. With “QVQLVESGGGLVQAGGSLRLSCAASGRTFFTYAMGWYRQAPGKERELVAAITYRGGGTYYADSVKGRFTISRDNAKNTVYLQMNSLKPEDTAVYYCAAEYWVGVYLYDYWGQGTQVTVSS” the entry was “high polyreactivity”; with “QVQLVESGGGLVQAGGSLRLSCAASGRTFLVYAMGWYRQAPGKERELVAAITYSDGSTYYADSVKGRFTISRDNAKNTVYLQMNSLKPEDTAVYFCAADSSTFPSDYYWGKGTQVTVSS”, “low polyreactivity”; with “QVQLVESGGGLVQAGGSLRLSCAASGRTFGIYVMGWYRQAPGKEMEWVAAIRGGGTTYYADSVKGRFTISRENAKNTVYLQMNSLKPEDTAVYYCAAVVKWWGQSRYDYWGQGTQVTVSS”, “high polyreactivity”. The entry for “QVQLVESGGGLVQAGGSLRLSCAASGSIFVTNAMGWYRQAPGKERELVAAISNSGSSTYYADSVKGRFTISRDNAKNTVYLQMNSLKPEDTAVYYCAADWYGVTGSYYYWGQGTQVTVSS” is “high polyreactivity”.

Regarding “QVQLVESGGGLVQAGGSLRLSCAASGFTFPRYAMGWYRQAPGKERELVAVITRRGGSTYYADSVKGRFTISRDNAKNTVYLQMNSLKPEDTAVYYCAARQYSYNGGYGYWGQGTQVTVSS”, the “polyreactivity (PSR sort gate)” value is “high polyreactivity”.

(Values after the nanobody polyreactivity screen of Harvey et al. (2022).)
